± gives the uncertainty stated by the source.
B1: Transcription elongation factor A N-terminal and central domain-containing protein, residues 30 to 77; numbered along this chain, Q8N8B7 (parent)
chain: LTELETIYVTKEHLQETDVVRAVYRVLKNCPSVALKKKAKCLLSKWKA

Variants of: B1
Test: abundance fitness (aPCA) (normalised: wild type 0, dead -1); higher = more abundant; growth selection in yeast, the domain comes from the species named
Settings: Homo sapiens

First: LTELETIYVTKEHLQETDVVRAVYRVLKNCPSVALKKKAKCHLSKWKA [L42H]
Second: LTELETIYVTKEHLQETDVVRAVYRVLKNCPSVALKKKAKCMLSKWKA [L42M]
The abundance fitness of the first is lower: -1.02 ± 0.45 for the first, -0.203 ± 0.17 for the second.

Going from LTELETIYVTKEHLQETDVVRAVYRVLKNCPSVALKKKAKCILSKWKA [L42I] to LTELETIYVTKEHLQETDVVRAVYRVLKNCPSVALKKKAKCELSKWKA [L42E], the abundance fitness falls from -0.283 ± 0.18 to -0.993 ± 0.2.

LTELETIYVTKEHLQETDVVRAVYRVLKNCPSVALKKKAKCSLSKWKA [L42S] and LTELETIYVTKEHLQETDVVRAVYRVLKNCPSVALKKKAKCLSSKWKA [L43S] are within error of each other in abundance fitness: -0.77 ± 0.12 for the first, -1.04 ± 0.18 for the second.

LTELETIYVTKEHLQETDVVRAVYRVLKNCPSVALKKKAKCLCSKWKA [L43C] and LTELETIYVTKEHLQETDVVRAVYRVLKNCPSVALKKKAKCLDSKWKA [L43D] are within error of each other in abundance fitness: -0.647 ± 0.21 for the first, -0.829 ± 0.19 for the second.

LTELETIYVTKEHLQETDVVRAVYRVLKNCPSVALKKKAKCLESKWKA [L43E] and LTELETIYVTKEHLQETDVVRAVYRVLKNCPSVALKKKAKCLRSKWKA [L43R] are within error of each other in abundance fitness: -0.915 ± 0.23 for the first, -0.889 ± 0.11 for the second.

Going from LTELETIYVTKEHLQETDVVRAVYRVLKNCPSVALKKKAKCLFSKWKA [L43F] to LTELETIYVTKEHLQETDVVRAVYRVLKNCPSVALKKKAKCLPSKWKA [L43P], the abundance fitness falls from 0.047 ± 0.12 to -0.789 ± 0.29.

LTELETIYVTKEHLQETDVVRAVYRVLKNCPSVALKKKAKCLTSKWKA [L43T] and LTELETIYVTKEHLQETDVVRAVYRVLKNCPSVALKKKAKCLASKWKA [L43A] are within error of each other in abundance fitness: -1.05 ± 0.21 for the first, -0.787 ± 0.15 for the second.

First: LTELETIYVTKEHLQETDVVRAVYRVLKNCPSVALKKKAKCLWSKWKA [L43W]
Second: LTELETIYVTKEHLQETDVVRAVYRVLKNCPSVALKKKAKCLMSKWKA [L43M]
The abundance fitness of the first is higher: 0.127 ± 0.087 for the first, -0.138 ± 0.15 for the second.

Compared with LTELETIYVTKEHLQETDVVRAVYRVLKNCPSVALKKKAKCLQSKWKA [L43Q], LTELETIYVTKEHLQETDVVRAVYRVLKNCPSVALKKKAKCLGSKWKA [L43G] is lower in abundance fitness: -0.527 ± 0.14 for the first, -1.12 ± 0.14 for the second.

LTELETIYVTKEHLQETDVVRAVYRVLKNCPSVALKKKAKCLYSKWKA [L43Y] and LTELETIYVTKEHLQETDVVRAVYRVLKNCPSVALKKKAKCLVSKWKA [L43V] are within error of each other in abundance fitness: -0.256 ± 0.22 for the first, -0.272 ± 0.084 for the second.

Going from LTELETIYVTKEHLQETDVVRAVYRVLKNCPSVALKKKAKCLKSKWKA [L43K] to LTELETIYVTKEHLQETDVVRAVYRVLKNCPSVALKKLAKCLLSKWKA [K38L], the abundance fitness rises from -1.04 ± 0.24 to -0.024 ± 0.1.

LTELETIYVTKEHLQETDVVRAVYRVLKNCPSVALKKEAKCLLSKWKA [K38E] and LTELETIYVTKEHLQETDVVRAVYRVLKNCPSVALKKDAKCLLSKWKA [K38D] are within error of each other in abundance fitness: -0.933 ± 0.2 for the first, -0.885 ± 0.35 for the second.

First: LTELETIYVTKEHLQETDVVRAVYRVLKNCPSVALKKQAKCLLSKWKA [K38Q]
Second: LTELETIYVTKEHLQETDVVRAVYRVLKNCPSVALKKYAKCLLSKWKA [K38Y]
The abundance fitness of the first is lower: -0.645 ± 0.19 for the first, -0.265 ± 0.18 for the second.

First: LTELETIYVTKEHLQETDVVRAVYRVLKNCPSVALKKHAKCLLSKWKA [K38H]
Second: LTELETIYVTKEHLQETDVVRAVYRVLKNCPSVALKKGAKCLLSKWKA [K38G]
The abundance fitness of the first is lower: -0.529 ± 0.14 for the first, -0.209 ± 0.074 for the second.

First: LTELETIYVTKEHLQETDVVRAVYRVLKNCPSVALKKAAKCLLSKWKA [K38A]
Second: LTELETIYVTKEHLQETDVVRAVYRVLKNCPSVALKKPAKCLLSKWKA [K38P]
The abundance fitness of the first is higher: 0.023 ± 0.097 for the first, -0.679 ± 0.23 for the second.

LTELETIYVTKEHLQETDVVRAVYRVLKNCPSVALKKIAKCLLSKWKA [K38I] and LTELETIYVTKEHLQETDVVRAVYRVLKNCPSVALKKWAKCLLSKWKA [K38W] are within error of each other in abundance fitness: -0.266 ± 0.16 for the first, -0.252 ± 0.12 for the second.

LTELETIYVTKEHLQETDVVRAVYRVLKNCPSVALKKNAKCLLSKWKA [K38N] and LTELETIYVTKEHLQETDVVRAVYRVLKNCPSVALKKRAKCLLSKWKA [K38R] are within error of each other in abundance fitness: 0.201 ± 0.41 for the first, -0.061 ± 0.077 for the second.

LTELETIYVTKEHLQETDVVRAVYRVLKNCPSVALKKFAKCLLSKWKA [K38F] and LTELETIYVTKEHLQETDVVRAVYRVLKNCPSVALKKTAKCLLSKWKA [K38T] are within error of each other in abundance fitness: -0.193 ± 0.31 for the first, -0.11 ± 0.24 for the second.

LTELETIYVTKEHLQETDVVRAVYRVLKNCPSVALKKCAKCLLSKWKA [K38C] and LTELETIYVTKEHLQETDVVRAVYRVLKNCPSVALKKKAKGLLSKWKA [C41G] are within error of each other in abundance fitness: 0.099 ± 0.17 for the first, 0.025 ± 0.083 for the second.

Going from LTELETIYVTKEHLQETDVVRAVYRVLKNCPSVALKKKAKHLLSKWKA [C41H] to LTELETIYVTKEHLQETDVVRAVYRVLKNCPSVALKKKAKYLLSKWKA [C41Y], the abundance fitness falls from 0.239 ± 0.12 to -0.558 ± 0.16.

LTELETIYVTKEHLQETDVVRAVYRVLKNCPSVALKKKAKNLLSKWKA [C41N] and LTELETIYVTKEHLQETDVVRAVYRVLKNCPSVALKKKAKKLLSKWKA [C41K] are within error of each other in abundance fitness: 0.268 ± 0.38 for the first, 0.171 ± 0.13 for the second.

LTELETIYVTKEHLQETDVVRAVYRVLKNCPSVALKKKAKRLLSKWKA [C41R] and LTELETIYVTKEHLQETDVVRAVYRVLKNCPSVALKKKAKILLSKWKA [C41I] are within error of each other in abundance fitness: 0.167 ± 0.09 for the first, -0.202 ± 0.47 for the second.

Compared with LTELETIYVTKEHLQETDVVRAVYRVLKNCPSVALKKKAKPLLSKWKA [C41P], LTELETIYVTKEHLQETDVVRAVYRVLKNCPSVALKKKAKTLLSKWKA [C41T] is higher in abundance fitness: -1.22 ± 0.26 for the first, -0.073 ± 0.21 for the second.

LTELETIYVTKEHLQETDVVRAVYRVLKNCPSVALKKKAKVLLSKWKA [C41V] and LTELETIYVTKEHLQETDVVRAVYRVLKNCPSVALKKKAKLLLSKWKA [C41L] are within error of each other in abundance fitness: 0.042 ± 0.087 for the first, 0.047 ± 0.097 for the second.

LTELETIYVTKEHLQETDVVRAVYRVLKNCPSVALKKKAKDLLSKWKA [C41D] and LTELETIYVTKEHLQETDVVRAVYRVLKNCPSVALKKKAKSLLSKWKA [C41S] are within error of each other in abundance fitness: -0.182 ± 0.18 for the first, 0.093 ± 0.11 for the second.

LTELETIYVTKEHLQETDVVRAVYRVLKNCPSVALKKKAKQLLSKWKA [C41Q] and LTELETIYVTKEHLQETDVVRAVYRVLKNCPSVALKKKAKFLLSKWKA [C41F] are within error of each other in abundance fitness: 0.293 ± 0.14 for the first, 0.005 ± 0.22 for the second.

LTELETIYVTKEHLQETDVVRAVYRVLKNCPSVALKKKAKMLLSKWKA [C41M] and LTELETIYVTKEHLQETDVVRAVYRVLKNCPSVALKKKAKELLSKWKA [C41E] are within error of each other in abundance fitness: -0.232 ± 0.18 for the first, 0.019 ± 0.17 for the second.

From the Human Domainome abundance scans (Beltran et al. 2025)
